Patent publication US12679878B2, “CRF2 receptor agonists and their use in therapy” (SANOFI, priority 2020, dated 2026)
Starred links: 1 amine or outer side, 2 acyl side, 3 side chain; linkers in the order of their positions; H or OH if unused. Non-standard residues stand in square brackets, D forms with d. Groups on a side chain read outwards from the residue. No end group written: not given here. *: point of attachment. C18 diacid = O=C(O)CCCCCCCCCCCCCCCCC(=O)*; γGlu = O=C(O)[C@H](CCC(=O)[*:2])N[*:1]; AEEA = NCCOCCOCC(=O)O; Aib = CC(C)(N)C(=O)O

B1: SEQ ID NO: 183 (peptide)
peptide: IVLSLD[dV]PIKLK(C18 diacid)QILLKQARQK[Aib]QRAQAEKNKRILERV-NH2
modifications: N-terminus assumed
SMILES: CC[C@H](C)[C@H](N)C(=O)N[C@H](C(=O)N[C@@H](CC(C)C)C(=O)N[C@@H](CO)C(=O)N[C@@H](CC(C)C)C(=O)N[C@@H](CC(=O)O)C(=O)N[C@@H](C(=O)N1CCC[C@H]1C(=O)N[C@H](C(=O)N[C@@H](CCCCN)C(=O)N[C@@H](CC(C)C)C(=O)N[C@@H](CCCCNC(=O)CCCCCCCCCCCCCCCCC(=O)O)C(=O)N[C@@H](CCC(N)=O)C(=O)N[C@H](C(=O)N[C@@H](CC(C)C)C(=O)N[C@@H](CC(C)C)C(=O)N[C@@H](CCCCN)C(=O)N[C@@H](CCC(N)=O)C(=O)N[C@@H](C)C(=O)N[C@@H](CCCNC(=N)N)C(=O)N[C@@H](CCC(N)=O)C(=O)N[C@@H](CCCCN)C(=O)NC(C)(C)C(=O)N[C@@H](CCC(N)=O)C(=O)N[C@@H](CCCNC(=N)N)C(=O)N[C@@H](C)C(=O)N[C@@H](CCC(N)=O)C(=O)N[C@@H](C)C(=O)N[C@@H](CCC(=O)O)C(=O)N[C@@H](CCCCN)C(=O)N[C@@H](CC(N)=O)C(=O)N[C@@H](CCCCN)C(=O)N[C@@H](CCCNC(=N)N)C(=O)N[C@H](C(=O)N[C@@H](CC(C)C)C(=O)N[C@@H](CCC(=O)O)C(=O)N[C@@H](CCCNC(=N)N)C(=O)N[C@H](C(N)=O)C(C)C)[C@@H](C)CC)[C@@H](C)CC)[C@@H](C)CC)C(C)C)C(C)C
B2: SEQ ID NO: 180 (peptide)
peptide: IVLSLD[dV]PIKLK([γGlu-C18 diacid])QILLKQARQK[Aib]QRAQAEKNKRILERV-NH2
modifications: N-terminus assumed
SMILES: CC[C@H](C)[C@H](N)C(=O)N[C@H](C(=O)N[C@@H](CC(C)C)C(=O)N[C@@H](CO)C(=O)N[C@@H](CC(C)C)C(=O)N[C@@H](CC(=O)O)C(=O)N[C@@H](C(=O)N1CCC[C@H]1C(=O)N[C@H](C(=O)N[C@@H](CCCCN)C(=O)N[C@@H](CC(C)C)C(=O)N[C@@H](CCCCNC(=O)CC[C@H](NC(=O)CCCCCCCCCCCCCCCCC(=O)O)C(=O)O)C(=O)N[C@@H](CCC(N)=O)C(=O)N[C@H](C(=O)N[C@@H](CC(C)C)C(=O)N[C@@H](CC(C)C)C(=O)N[C@@H](CCCCN)C(=O)N[C@@H](CCC(N)=O)C(=O)N[C@@H](C)C(=O)N[C@@H](CCCNC(=N)N)C(=O)N[C@@H](CCC(N)=O)C(=O)N[C@@H](CCCCN)C(=O)NC(C)(C)C(=O)N[C@@H](CCC(N)=O)C(=O)N[C@@H](CCCNC(=N)N)C(=O)N[C@@H](C)C(=O)N[C@@H](CCC(N)=O)C(=O)N[C@@H](C)C(=O)N[C@@H](CCC(=O)O)C(=O)N[C@@H](CCCCN)C(=O)N[C@@H](CC(N)=O)C(=O)N[C@@H](CCCCN)C(=O)N[C@@H](CCCNC(=N)N)C(=O)N[C@H](C(=O)N[C@@H](CC(C)C)C(=O)N[C@@H](CCC(=O)O)C(=O)N[C@@H](CCCNC(=N)N)C(=O)N[C@H](C(N)=O)C(C)C)[C@@H](C)CC)[C@@H](C)CC)[C@@H](C)CC)C(C)C)C(C)C
B3: SEQ ID NO: 182 (peptide)
peptide: IVLSLD[dV]PIKLK(C18 diacid)QILLKQERQK[Aib]QREQAEKNKQILAQV-NH2
modifications: N-terminus assumed
SMILES: CC[C@H](C)[C@H](N)C(=O)N[C@H](C(=O)N[C@@H](CC(C)C)C(=O)N[C@@H](CO)C(=O)N[C@@H](CC(C)C)C(=O)N[C@@H](CC(=O)O)C(=O)N[C@@H](C(=O)N1CCC[C@H]1C(=O)N[C@H](C(=O)N[C@@H](CCCCN)C(=O)N[C@@H](CC(C)C)C(=O)N[C@@H](CCCCNC(=O)CCCCCCCCCCCCCCCCC(=O)O)C(=O)N[C@@H](CCC(N)=O)C(=O)N[C@H](C(=O)N[C@@H](CC(C)C)C(=O)N[C@@H](CC(C)C)C(=O)N[C@@H](CCCCN)C(=O)N[C@@H](CCC(N)=O)C(=O)N[C@@H](CCC(=O)O)C(=O)N[C@@H](CCCNC(=N)N)C(=O)N[C@@H](CCC(N)=O)C(=O)N[C@@H](CCCCN)C(=O)NC(C)(C)C(=O)N[C@@H](CCC(N)=O)C(=O)N[C@@H](CCCNC(=N)N)C(=O)N[C@@H](CCC(=O)O)C(=O)N[C@@H](CCC(N)=O)C(=O)N[C@@H](C)C(=O)N[C@@H](CCC(=O)O)C(=O)N[C@@H](CCCCN)C(=O)N[C@@H](CC(N)=O)C(=O)N[C@@H](CCCCN)C(=O)N[C@@H](CCC(N)=O)C(=O)N[C@H](C(=O)N[C@@H](CC(C)C)C(=O)N[C@@H](C)C(=O)N[C@@H](CCC(N)=O)C(=O)N[C@H](C(N)=O)C(C)C)[C@@H](C)CC)[C@@H](C)CC)[C@@H](C)CC)C(C)C)C(C)C
B4: SEQ ID NO: 181 (peptide)
peptide: IVLSLD[dV]PIKLK([γGlu-C18 diacid])QILLKQERQKKQRQQAEKNKQILAQV-NH2
modifications: N-terminus assumed
SMILES: CC[C@H](C)[C@H](N)C(=O)N[C@H](C(=O)N[C@@H](CC(C)C)C(=O)N[C@@H](CO)C(=O)N[C@@H](CC(C)C)C(=O)N[C@@H](CC(=O)O)C(=O)N[C@@H](C(=O)N1CCC[C@H]1C(=O)N[C@H](C(=O)N[C@@H](CCCCN)C(=O)N[C@@H](CC(C)C)C(=O)N[C@@H](CCCCNC(=O)CC[C@H](NC(=O)CCCCCCCCCCCCCCCCC(=O)O)C(=O)O)C(=O)N[C@@H](CCC(N)=O)C(=O)N[C@H](C(=O)N[C@@H](CC(C)C)C(=O)N[C@@H](CC(C)C)C(=O)N[C@@H](CCCCN)C(=O)N[C@@H](CCC(N)=O)C(=O)N[C@@H](CCC(=O)O)C(=O)N[C@@H](CCCNC(=N)N)C(=O)N[C@@H](CCC(N)=O)C(=O)N[C@@H](CCCCN)C(=O)N[C@@H](CCCCN)C(=O)N[C@@H](CCC(N)=O)C(=O)N[C@@H](CCCNC(=N)N)C(=O)N[C@@H](CCC(N)=O)C(=O)N[C@@H](CCC(N)=O)C(=O)N[C@@H](C)C(=O)N[C@@H](CCC(=O)O)C(=O)N[C@@H](CCCCN)C(=O)N[C@@H](CC(N)=O)C(=O)N[C@@H](CCCCN)C(=O)N[C@@H](CCC(N)=O)C(=O)N[C@H](C(=O)N[C@@H](CC(C)C)C(=O)N[C@@H](C)C(=O)N[C@@H](CCC(N)=O)C(=O)N[C@H](C(N)=O)C(C)C)[C@@H](C)CC)[C@@H](C)CC)[C@@H](C)CC)C(C)C)C(C)C
B5: SEQ ID NO: 184 (peptide)
peptide: IVLSLD[dV]PIKLK(C18 diacid)QILLKQERQKKQRQQAEKNKQILAQV-NH2
modifications: N-terminus assumed
SMILES: CC[C@H](C)[C@H](N)C(=O)N[C@H](C(=O)N[C@@H](CC(C)C)C(=O)N[C@@H](CO)C(=O)N[C@@H](CC(C)C)C(=O)N[C@@H](CC(=O)O)C(=O)N[C@@H](C(=O)N1CCC[C@H]1C(=O)N[C@H](C(=O)N[C@@H](CCCCN)C(=O)N[C@@H](CC(C)C)C(=O)N[C@@H](CCCCNC(=O)CCCCCCCCCCCCCCCCC(=O)O)C(=O)N[C@@H](CCC(N)=O)C(=O)N[C@H](C(=O)N[C@@H](CC(C)C)C(=O)N[C@@H](CC(C)C)C(=O)N[C@@H](CCCCN)C(=O)N[C@@H](CCC(N)=O)C(=O)N[C@@H](CCC(=O)O)C(=O)N[C@@H](CCCNC(=N)N)C(=O)N[C@@H](CCC(N)=O)C(=O)N[C@@H](CCCCN)C(=O)N[C@@H](CCCCN)C(=O)N[C@@H](CCC(N)=O)C(=O)N[C@@H](CCCNC(=N)N)C(=O)N[C@@H](CCC(N)=O)C(=O)N[C@@H](CCC(N)=O)C(=O)N[C@@H](C)C(=O)N[C@@H](CCC(=O)O)C(=O)N[C@@H](CCCCN)C(=O)N[C@@H](CC(N)=O)C(=O)N[C@@H](CCCCN)C(=O)N[C@@H](CCC(N)=O)C(=O)N[C@H](C(=O)N[C@@H](CC(C)C)C(=O)N[C@@H](C)C(=O)N[C@@H](CCC(N)=O)C(=O)N[C@H](C(N)=O)C(C)C)[C@@H](C)CC)[C@@H](C)CC)[C@@H](C)CC)C(C)C)C(C)C
B6: SEQ ID NO: 22 (peptide)
peptide: IVLSLDVPIKLK([AEEA-AEEA-γGlu-C18 diacid])QILLKQERQK[Aib]QRQKAEKNKQILAQV-NH2
modifications: N-terminus assumed
SMILES: CC[C@H](C)[C@H](N)C(=O)N[C@H](C(=O)N[C@@H](CC(C)C)C(=O)N[C@@H](CO)C(=O)N[C@@H](CC(C)C)C(=O)N[C@@H](CC(=O)O)C(=O)N[C@H](C(=O)N1CCC[C@H]1C(=O)N[C@H](C(=O)N[C@@H](CCCCN)C(=O)N[C@@H](CC(C)C)C(=O)N[C@@H](CCCCNC(=O)COCCOCCNC(=O)COCCOCCNC(=O)CC[C@H](NC(=O)CCCCCCCCCCCCCCCCC(=O)O)C(=O)O)C(=O)N[C@@H](CCC(N)=O)C(=O)N[C@H](C(=O)N[C@@H](CC(C)C)C(=O)N[C@@H](CC(C)C)C(=O)N[C@@H](CCCCN)C(=O)N[C@@H](CCC(N)=O)C(=O)N[C@@H](CCC(=O)O)C(=O)N[C@@H](CCCNC(=N)N)C(=O)N[C@@H](CCC(N)=O)C(=O)N[C@@H](CCCCN)C(=O)NC(C)(C)C(=O)N[C@@H](CCC(N)=O)C(=O)N[C@@H](CCCNC(=N)N)C(=O)N[C@@H](CCC(N)=O)C(=O)N[C@@H](CCCCN)C(=O)N[C@@H](C)C(=O)N[C@@H](CCC(=O)O)C(=O)N[C@@H](CCCCN)C(=O)N[C@@H](CC(N)=O)C(=O)N[C@@H](CCCCN)C(=O)N[C@@H](CCC(N)=O)C(=O)N[C@H](C(=O)N[C@@H](CC(C)C)C(=O)N[C@@H](C)C(=O)N[C@@H](CCC(N)=O)C(=O)N[C@H](C(N)=O)C(C)C)[C@@H](C)CC)[C@@H](C)CC)[C@@H](C)CC)C(C)C)C(C)C

These binders were tested against human corticotropin-releasing factor 2α (CRF2 α receptor) (human), Q13324 (assay: cell-based or functional assay).
Sequence of human corticotropin-releasing factor 2α (CRF2 α receptor) (human), Q13324 (Q13324 20-411): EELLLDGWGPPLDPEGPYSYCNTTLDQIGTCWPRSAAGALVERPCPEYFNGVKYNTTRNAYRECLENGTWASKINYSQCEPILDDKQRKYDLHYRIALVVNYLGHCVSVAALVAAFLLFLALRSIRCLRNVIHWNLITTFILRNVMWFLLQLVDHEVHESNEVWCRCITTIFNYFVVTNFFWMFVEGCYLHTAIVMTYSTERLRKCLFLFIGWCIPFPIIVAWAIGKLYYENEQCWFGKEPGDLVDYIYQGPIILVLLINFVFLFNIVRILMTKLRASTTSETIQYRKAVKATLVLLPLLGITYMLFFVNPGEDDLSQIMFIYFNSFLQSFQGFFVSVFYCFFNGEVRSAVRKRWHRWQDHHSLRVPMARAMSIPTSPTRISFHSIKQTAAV

EC50 [nM], 0% HSA [nM] | EC50 [nM], 0.1% HSA [nM] | Binder
0.12 | 1.58 | B1
0.05 | 1.74 | B2
0.03 | 3.13 | B3
1.18 | 15.3 | B4
0.05 | 2.83 | B5
0.12 | – | B6
